Drawing on publication PMC8178691, this text covers binding as percent of normal VWF for one substance.

For the experiment, the target named is human purified plasma‐derived fibronectin (human). Description: ELISA.

The substance “recombinant VWF p.D2509E (from UniProt P04275 23-2813) (natural protein)” gave a binding as percent of normal VWF of 68%.
